Where two headings read alike, the source gives them in different places.
Key:
[1] = molecular target: PorZ from Porphyromonas gingivalis (Porphyromonas gingivalis) (UniProt Q9S3Q8); assay: MST
[2] = molecular target: PorZ from Porphyromonas gingivalis (Porphyromonas gingivalis) (UniProt Q9S3Q8); assay: MST; remark: listed apart in the source

“PorU sortase from Porphyromonas gingivalis, hexahistidine-tagged (from UniProt B2RGP6 1-1158) (enzyme)” gave a Kd [1] of 3380 nM and a Kd [2] of 672 nM.

Reference: article doi:10.1101/2020.07.16.206169
